According to patent US20210388081A1 (Memorial Sloan Kettering, published 2021):

T1: FcRL3, overexpressed on 3T3 cells (UniProt Q96P31 18-734, limits assumed)
T1 construct: whole, on cells
T1 sequence (looked up): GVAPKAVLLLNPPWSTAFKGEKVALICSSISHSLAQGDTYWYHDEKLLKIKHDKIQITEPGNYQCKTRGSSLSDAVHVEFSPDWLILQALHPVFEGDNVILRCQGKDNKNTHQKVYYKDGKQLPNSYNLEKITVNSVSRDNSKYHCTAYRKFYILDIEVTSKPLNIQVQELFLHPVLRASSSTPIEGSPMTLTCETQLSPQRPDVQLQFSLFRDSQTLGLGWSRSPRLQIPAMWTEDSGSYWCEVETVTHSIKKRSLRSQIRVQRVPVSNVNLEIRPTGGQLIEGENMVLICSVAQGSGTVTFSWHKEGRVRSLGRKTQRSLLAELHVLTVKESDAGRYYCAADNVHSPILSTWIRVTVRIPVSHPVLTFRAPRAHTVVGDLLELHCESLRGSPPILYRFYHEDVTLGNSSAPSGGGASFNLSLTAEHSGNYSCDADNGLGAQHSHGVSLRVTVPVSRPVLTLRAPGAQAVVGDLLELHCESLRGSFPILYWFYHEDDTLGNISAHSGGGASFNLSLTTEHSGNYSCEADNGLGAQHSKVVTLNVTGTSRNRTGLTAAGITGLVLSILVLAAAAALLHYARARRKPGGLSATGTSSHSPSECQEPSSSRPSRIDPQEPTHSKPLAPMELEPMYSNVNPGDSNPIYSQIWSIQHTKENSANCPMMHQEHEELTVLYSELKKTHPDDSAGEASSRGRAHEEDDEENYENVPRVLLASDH

T2: Fc Receptor-like 5 (FcRL5), full length, overexpressed on 3T3 or Raji cells (human, UniProt Q96RD9 16-977)
T2 construct: also called 3T3-FcRL5
T2 sequence: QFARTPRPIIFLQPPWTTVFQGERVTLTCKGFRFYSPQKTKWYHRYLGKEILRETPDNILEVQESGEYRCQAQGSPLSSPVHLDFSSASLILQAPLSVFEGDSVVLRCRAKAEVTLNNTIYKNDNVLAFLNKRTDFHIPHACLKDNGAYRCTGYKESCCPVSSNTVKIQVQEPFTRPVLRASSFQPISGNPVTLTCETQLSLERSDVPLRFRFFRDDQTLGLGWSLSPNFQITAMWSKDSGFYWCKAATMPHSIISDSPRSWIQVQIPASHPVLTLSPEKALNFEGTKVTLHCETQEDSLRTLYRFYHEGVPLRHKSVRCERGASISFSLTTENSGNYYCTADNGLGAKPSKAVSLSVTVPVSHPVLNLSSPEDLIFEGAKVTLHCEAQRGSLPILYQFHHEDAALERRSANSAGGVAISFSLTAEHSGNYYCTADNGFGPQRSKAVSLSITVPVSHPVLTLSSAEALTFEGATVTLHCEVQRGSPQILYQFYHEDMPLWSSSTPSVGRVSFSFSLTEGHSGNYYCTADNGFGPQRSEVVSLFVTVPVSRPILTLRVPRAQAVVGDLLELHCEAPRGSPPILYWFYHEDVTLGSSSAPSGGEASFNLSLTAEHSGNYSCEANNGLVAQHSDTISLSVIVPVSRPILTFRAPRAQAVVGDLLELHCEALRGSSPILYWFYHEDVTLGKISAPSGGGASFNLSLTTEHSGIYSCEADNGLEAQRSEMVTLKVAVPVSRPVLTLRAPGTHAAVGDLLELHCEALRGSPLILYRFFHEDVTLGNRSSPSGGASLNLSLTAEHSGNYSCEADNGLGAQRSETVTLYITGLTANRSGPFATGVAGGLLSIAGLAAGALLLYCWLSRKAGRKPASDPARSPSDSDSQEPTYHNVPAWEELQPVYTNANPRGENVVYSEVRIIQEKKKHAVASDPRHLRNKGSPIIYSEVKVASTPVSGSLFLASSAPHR

T3: FcRL2, overexpressed on 3T3 cells (UniProt Q96LA5 20-508, limits assumed)
T3 construct: whole, on cells
T3 sequence (looked up): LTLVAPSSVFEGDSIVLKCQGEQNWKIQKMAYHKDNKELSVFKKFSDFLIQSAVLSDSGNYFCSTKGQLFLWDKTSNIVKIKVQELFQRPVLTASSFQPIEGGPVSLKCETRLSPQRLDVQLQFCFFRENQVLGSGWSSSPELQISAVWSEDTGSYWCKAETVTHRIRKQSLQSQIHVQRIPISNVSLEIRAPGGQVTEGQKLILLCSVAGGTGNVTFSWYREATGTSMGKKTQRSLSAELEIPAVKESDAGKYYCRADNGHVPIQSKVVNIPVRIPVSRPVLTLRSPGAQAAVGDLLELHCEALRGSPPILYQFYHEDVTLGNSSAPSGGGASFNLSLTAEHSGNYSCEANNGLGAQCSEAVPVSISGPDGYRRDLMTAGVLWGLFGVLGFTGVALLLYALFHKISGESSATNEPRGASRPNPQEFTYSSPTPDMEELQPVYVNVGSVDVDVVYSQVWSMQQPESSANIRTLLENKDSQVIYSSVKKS

T4: FcRL1, overexpressed on 3T3 cells (UniProt Q96LA6 17-429, limits assumed)
T4 construct: whole, on cells
T4 sequence (looked up): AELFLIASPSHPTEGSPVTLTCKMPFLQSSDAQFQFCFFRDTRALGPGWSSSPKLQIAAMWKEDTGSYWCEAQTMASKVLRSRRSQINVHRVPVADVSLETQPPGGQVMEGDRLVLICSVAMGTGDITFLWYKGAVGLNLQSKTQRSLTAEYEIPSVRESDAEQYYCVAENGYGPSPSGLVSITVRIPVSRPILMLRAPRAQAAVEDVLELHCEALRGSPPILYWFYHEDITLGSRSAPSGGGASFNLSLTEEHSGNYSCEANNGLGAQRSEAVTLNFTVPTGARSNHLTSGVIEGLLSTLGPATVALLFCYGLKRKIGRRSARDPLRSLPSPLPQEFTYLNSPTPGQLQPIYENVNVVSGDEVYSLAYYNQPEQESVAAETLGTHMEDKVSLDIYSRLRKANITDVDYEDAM

B1: ET200-005 (scFv)
scFv: QPVLTQPPSVSVVPGKTARITCGGKNIGSKSVHWYQQKPGQAPVVVIHYDSDRPSGIPERFSGSNSGNTATLTISRVEAGDEADYYCQVWDSSSDHPYVFGTGTKVTVLGSRGGGGSGGGGSGGGGSLEMAQVQLVQSGAEVKKPGASVKVSCKASGYTFTNYGISWVRQAPGQGLEWMGWISAYNGNTNYAHKLQGRVTMTTDTSTSTANMELRSLRPDDTAVYYCARSYFGSHDYWGQGTLVTVSSTSGQAGQHHHHHHGAYPYDVPDYAS
notes: screened as phage clone; entry is VL-linker-VH-His tag-HA tag
B2: ET200-010 (scFv)
scFv: QSALTQPASVSGSPGQSITISCTGTSSDVGGYNSVSWYQQHPGKAPRLMIYDVSNRPSGVSNRFSGSKSGNTASLTISGLQAEDEADYYCSSYTSSSTPLVFGTGTKVTVLGSRGGGGSGGGGSGGGGSLEMAQVQLVQSGAEVKKPGASVKVSCKASGYTFTSYGISWVRQAPGQGLEWMGWISAYNGNTNYAQKLQGRVTMTTDTSTSTAYMELRSLRSDDTAVYYCARGAVAYHDWGQGTLVTVSSTSGQAGQHHHHHHGAYPYDVPDYAS
notes: as for B1
B3: ET200-009 (scFv)
scFv: QSVLTQPPSASGTPGQTVTISCSGSNSNIGSNYVYWYQQLPGTAPKLLIYRNNQRPSGVPDRFSGSKSGTSASLAISGLRSEDEADYYCAAWDDSLSAYVFGTGTKVTVLGSRGGGGSGGGGSGGGGSLEMAQVQLVQSGAEVKKPGASVKVSCKASGYTFTSYGISWVRQAPGQGLEWMGWISAYNGNTNYAQKLQGRVTMTTDTSTSTAYMELRSLRSDDTAVYYCARSSGNMVSWKDMWGQGTLVTVSSTSGQAGQHHHHHHGAYPYDVPDYAS
notes: as for B1
B4: ET200-124 (scFv)
scFv: SYVLTQPPSVSVAPGKTARISCGGNDIGSKSVFWYQQRPGQAPVLVVYDDSDRPSGLPERFSGFNSGNTATLTISRVEAGDEADYYCQVWDSSSDHYVFGTGTKVTVLGSRGGGGSGGGGSGGGGSLEMAQVQLVESGGGLVQPGRSLRLSCAASGFTFDDYAMHWVRQAPGKGLEWVSGISWNSGSIGYADSVKGRFTISRDNAKNSLYLQMNSLRAEDTALYYCAKDITYGSGSYGAFDIWGQGTMVTVSSTSGQAGQHHHHHHGAYPYDVPDYAS
notes: as for B1

Key:
[1] = target: T1, FcRL3, overexpressed on 3T3 cells; assay: phage clone on 3T3-FcRL3 cells
[2] = target: T2, Fc Receptor-like 5 (FcRL5), full …; assay: phage clone screening on cells
Method in brief: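 scFv phage clones were incubated with live 3T3 cells overexpressing full-length FcRL5, then detected with mouse anti-M13 mAb and PE-anti-mouse Ig by flow cytometry. 3T3 cells expressing FcRL1, 2, 3, 4 or 6 served as negative-control targets.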

[3] = target: T3, FcRL2, overexpressed on 3T3 cells; assay: phage clone on 3T3-FcRL2 cells
[4] = target: T4, FcRL1, overexpressed on 3T3 cells; assay: phage clone on 3T3-FcRL1 cells

| Binder | binding result [1] | binding result [2] | binding result [3] | binding result [4] |
| --- | --- | --- | --- | --- |
| B1 | no binding | binds | no binding | no binding |
| B2 | no binding | binds | no binding | no binding |
| B3 | no binding | binds | no binding | no binding |
| B4 | no binding | binds | no binding | no binding |
